From PMC5358978, “Nuclear export receptor CRM1 recognizes diverse conformations in nuclear export signals” (eLife, 2017)

Experiments:
Conditions in all cases: both partners purified
[1] = molecular target: T1, human CRM1 (HsCRM1), wild type (human, UniProt O14980 1-1071); assay: differential bleaching; competition titration of MBP-NES to FITC-PKI NES and CRM1 with excess RanGTP; triplicate; fitted with a set of direct titrations
T1 construct: human CRM1 / Exportin-1 (XPO1); Always used together with RanGTP (ScRanGTP in the pull-downs); also called Exportin-1; XPO1

[2] = molecular target: engineered ScCRM1(K579A) mutant (S. cerevisiae, UniProt P30822 1-1058, △377–413 | 537DLTVK541 to GLCEQ | V441D | K579A); assay: crystal structure; NES peptide bound to the engineered ScCRM1-RanGppNHp-Yrb1p complex; crystallised as in Fung et al., 2015
[3] = molecular target: engineered ScCRM1 (residues 1-1058, △377-413, 537DLTVK541 to GLCEQ, V441D) (S. cerevisiae, UniProt P30822 1-1058, △377–413 | 537DLTVK541 to GLCEQ | V441D); assay: as above
[4] = molecular target: T1, human CRM1 (HsCRM1), wild type; assay: pull-down; ~10 µg immobilized GST-NES, 2.5 µM HsCRM1 and 7.5 µM ScRanGTP in 200 µL
[5] = molecular target: T2, human CRM1 mutant HsCRM1(K568M) (human, UniProt O14980 1-1071, K568M); assay: pull-down; ~5 µg immobilized GST-NESs, 500 nM HsCRM1 (wild type or mutant) and 1.5 µM ScRanGTP in 1 mL
T2 construct: human CRM1 / Exportin-1 (XPO1) with K568M; Used together with RanGTP

[6] = molecular target: T1, human CRM1 (HsCRM1), wild type; assay: as above
[7] = molecular target: T3, human CRM1 mutant HsCRM1(K568A) (human, UniProt O14980 1-1071, K568A); assay: as above
T3 construct: human CRM1 / Exportin-1 (XPO1) with K568A; Used together with RanGTP

[8] = molecular target: T3, human CRM1 mutant HsCRM1(K568A); assay: pull-down; ~5 µg immobilized GST-NESs, 7.5 µM ScRanGTP and 2.5 µM HsCRM1 (wild type or mutant) in 200 µL
[9] = molecular target: T2, human CRM1 mutant HsCRM1(K568M); assay: as above

T3 sequence (O14980 whole entry K568A): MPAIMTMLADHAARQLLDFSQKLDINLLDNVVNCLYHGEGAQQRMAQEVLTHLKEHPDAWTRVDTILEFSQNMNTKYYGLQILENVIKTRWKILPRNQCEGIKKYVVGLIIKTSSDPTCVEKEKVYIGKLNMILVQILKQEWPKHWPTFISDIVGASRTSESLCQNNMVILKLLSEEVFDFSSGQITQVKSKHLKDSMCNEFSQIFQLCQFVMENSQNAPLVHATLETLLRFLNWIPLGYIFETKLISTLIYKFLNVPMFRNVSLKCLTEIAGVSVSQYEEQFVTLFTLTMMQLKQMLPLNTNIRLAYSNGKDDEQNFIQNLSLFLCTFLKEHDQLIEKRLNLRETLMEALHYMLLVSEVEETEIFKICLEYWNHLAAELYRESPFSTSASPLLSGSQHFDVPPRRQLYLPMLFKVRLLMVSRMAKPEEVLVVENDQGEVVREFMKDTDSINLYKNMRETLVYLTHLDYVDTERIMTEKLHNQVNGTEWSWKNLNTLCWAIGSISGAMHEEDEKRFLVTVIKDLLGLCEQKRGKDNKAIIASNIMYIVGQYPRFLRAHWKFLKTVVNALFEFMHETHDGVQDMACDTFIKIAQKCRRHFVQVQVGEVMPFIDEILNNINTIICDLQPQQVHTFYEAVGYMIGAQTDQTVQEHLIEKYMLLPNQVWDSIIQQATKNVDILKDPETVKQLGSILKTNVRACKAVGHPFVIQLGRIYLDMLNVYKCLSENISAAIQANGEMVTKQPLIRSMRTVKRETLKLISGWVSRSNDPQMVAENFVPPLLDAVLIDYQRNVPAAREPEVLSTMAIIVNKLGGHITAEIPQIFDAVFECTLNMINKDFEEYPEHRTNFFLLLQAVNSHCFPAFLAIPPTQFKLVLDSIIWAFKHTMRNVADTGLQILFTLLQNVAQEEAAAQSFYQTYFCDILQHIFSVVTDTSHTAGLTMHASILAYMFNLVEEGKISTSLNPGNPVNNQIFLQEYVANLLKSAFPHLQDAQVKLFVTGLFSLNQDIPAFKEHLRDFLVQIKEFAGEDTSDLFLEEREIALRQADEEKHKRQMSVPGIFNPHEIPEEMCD
T1 sequence (O14980 whole entry): as the sequence (O14980 whole entry K568A) above, with A568K counted along it
T2 sequence (O14980 whole entry K568M): as the sequence (O14980 whole entry K568A) above, with A568M counted along it

B1: MBP-X11L2 NES (peptide)
chain: SSLQELVQQFEALPGDLV
notes: also called MBP-NES; not shown: MBP, N-terminal, kept
binding result [1]: binds

B2: DEAF1 peptide (crystallised, false positive NES) (peptide)
peptide: SWLYLEEMVNSLLNTAQQ
notes: Deformed Epidermal Autoregulatory Factor 1 homolog (DEAF1), residues 452-469; Extra N-terminal residues such as those printed for mDia2 (GGSY) and FMRP-1b (GGS) may be present; also called DEAF^pep; source: expressed and purified as described in Fung et al., 2015
binding result [2]: binds

B3: mDia2 NES peptide (crystallised) (peptide)
peptide: GGSYSVPEVEALLARLRAL
notes: residues printed before the NES in the crystallised peptide; not of mDia2; mouse diaphanous homolog 3 (mDia2), residues 1179-1193; source: expressed and purified as described in Fung et al., 2015
binding result [3]: binds

B4: GST-CDC7 NES (peptide)
chain: QDLRKLCERLRGMDSSTP
notes: cell division cycle 7-related protein kinase (CDC7), residues 456-473; source: as described in Fung et al., 2015; not shown: GST, N-terminal, kept
binding result [4]: binds

B5: GST-X11L2 NES (peptide)
chain: SSLQELVQQFEALPGDLV
notes: source: as described in Fung et al., 2015; not shown: GST, N-terminal, kept
binding result [5]: binds
binding result [6]: binds
binding result [7]: binds

B6: GST-Hxk2 peptide (false positive NES) (peptide)
chain: DVPKELMQQIENFEKIFTV
notes: Hexokinase-2 (Hxk2), residues 18-36; also called GST-NESs; source: as described in Fung et al., 2015; not shown: GST, N-terminal, kept
binding result [8]: binds

B7: GST-DEAF1 peptide (false positive NES) (peptide)
chain: SWLYLEEMVNSLLNTAQQ
notes: Deformed Epidermal Autoregulatory Factor 1 homolog (DEAF1), residues 452-469; also called GST-NESs; source: as described in Fung et al., 2015; not shown: GST, N-terminal, kept
binding result [9]: binds
binding result [8]: binds

B8: X11L2 NES peptide (crystallised) (peptide)
peptide: SSLQELVQQFEALPGDLV
notes: Extra N-terminal residues such as those printed for mDia2 (GGSY) and FMRP-1b (GGS) may be present; source: expressed and purified as described in Fung et al., 2015
binding result [3]: binds

B9: Paxillin NES peptide (crystallised) (peptide)
peptide: RELDELMASLSDFKFMAQ
notes: Paxillin, residues 264-281; Extra N-terminal residues such as those printed for mDia2 (GGSY) and FMRP-1b (GGS) may be present; also called Pax^NES; source: expressed and purified as described in Fung et al., 2015
binding result [3]: binds

B10: MBP-mDia2 NES (wild type) (peptide)
chain: SVPEVEALLARLRAL
notes: mouse diaphanous homolog 3 (mDia2), residues 1179-1193; also called wild type mDia2^NES; not shown: MBP, N-terminal, kept
Kd [1]: 1.7 µM

NSNELALKLAGLDANKT [PKI NES(Φ4A) mutant (MBP fusion)]
Kd [1]: 150 µM

B11: FMRP NES peptide (crystallised) (peptide)
peptide: YLKEVDQLRLERLQI
notes: fragile X mental retardation protein (FMRP), residues 423-437; Extra N-terminal residues such as those printed for mDia2 (GGSY) and FMRP-1b (GGS) may be present; source: expressed and purified as described in Fung et al., 2015
binding result [3]: binds

B12: MBP-SMAD4 NES (peptide)
chain: YERVVSPGIDLSGLTLQ
notes: Mothers against decapentaplegic homolog 4 (SMAD4), residues 133-149; also called MBP-NES; not shown: MBP, N-terminal, kept
binding result [1]: binds

B13: HDAC5 NES peptide (crystallised) (peptide)
peptide: EAETVSAMALLSVG
notes: Histone deacetylase 5 (HDAC5), residues 1082-1095; Extra N-terminal residues such as those printed for mDia2 (GGSY) and FMRP-1b (GGS) may be present; also called HDAC^NES; source: expressed and purified as described in Fung et al., 2015
binding result [3]: binds

B14: MBP-Paxillin NES (peptide)
chain: RELDELMASLSDFKFMAQ
notes: Paxillin, residues 264-281; also called Pax^NES; MBP-NES; not shown: MBP, N-terminal, kept
binding result [1]: binds

B15: Hxk2 peptide (crystallised, false positive NES) (peptide)
peptide: DVPKELMQQIENFEKIFTV
notes: Hexokinase-2 (Hxk2), residues 18-36; Extra N-terminal residues such as those printed for mDia2 (GGSY) and FMRP-1b (GGS) may be present; source: expressed and purified as described in Fung et al., 2015
binding result [2]: binds

B16: MBP-CDC7 NES (peptide)
chain: QDLRKLCERLRGMDSSTP
notes: cell division cycle 7-related protein kinase (CDC7), residues 456-473; also called MBP-NES; not shown: MBP, N-terminal, kept
binding result [1]: binds

B17: MBP-HDAC5 NES (peptide)
chain: EAETVSAMALLSVG
notes: Histone deacetylase 5 (HDAC5), residues 1082-1095; also called HDAC^NES; MBP-NES; not shown: MBP, N-terminal, kept
binding result [1]: binds

B18: CDC7 NES peptide (crystallised) (peptide)
peptide: QDLRKLCERLRGMDSSTP
notes: cell division cycle 7-related protein kinase (CDC7), residues 456-473; Extra N-terminal residues such as those printed for mDia2 (GGSY) and FMRP-1b (GGS) may be present; source: expressed and purified as described in Fung et al., 2015
binding result [3]: binds

B19: SMAD4 NES peptide (crystallised) (peptide)
peptide: YERVVSPGIDLSGLTLQ
notes: Mothers against decapentaplegic homolog 4 (SMAD4), residues 133-149; Extra N-terminal residues such as those printed for mDia2 (GGSY) and FMRP-1b (GGS) may be present; source: expressed and purified as described in Fung et al., 2015
binding result [3]: binds

B20: MBP-FMRP NES (peptide)
chain: YLKEVDQLRLERLQI
notes: fragile X mental retardation protein (FMRP), residues 423-437; also called MBP-NES; not shown: MBP, N-terminal, kept
binding result [1]: binds
